Results: the supplement of paper PMC10724198
± gives the standard deviation of the averaged measurements.

Legend:
Experiment in all cases: protein stability index of tFT-peptide fusion (C-terminal peptide) (PSI (0-1 scale)); higher = more stable (slower turnover)
Saccharomyces cerevisiae [1] = details: temperature: 30 C
Experimental: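 MPS profiling in S. cerevisiae of the yeast C-terminome library: the last 12 aa of each annotated ORF are fused to the C-terminus of a sfGFP-mCherry timer, after a GGGS linker. Cells are FACS-sorted into 8 mCherry/sfGFP bins and deep-sequenced. PSI runs from 0 (unstable) to 1 (stable); wild type and das1Δ backgrounds, two technical replicates each.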

Saccharomyces cerevisiae [2] = system: Saccharomyces cerevisiae
Experimental: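 MPS profiling in S. cerevisiae of the tFT-X12 degron library: putative degron peptides plus stable controls, 12 aa, fused to the C-terminus of a sfGFP-mCherry timer. Cells are FACS-sorted into 8 mCherry/sfGFP bins and deep-sequenced. PSI runs from 0 (unstable) to 1 (stable). Backgrounds are wild type, das1Δ and doa10Δ at 30 °C, and wild type, das1Δ, cdc34-1 and cdc53-1 at 37 °C; 2-3 technical replicates each.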

Saccharomyces cerevisiae [3] = details: genetic background: wild type; temperature: 30 C
[4] = genetic background: das1 deletion
[5] = genetic background: cdc34-1, temperature: 37 C
[6] = genetic background: cdc53-1, temperature: 37 C
[7] = genetic background: das1 deletion, temperature: 30 C
[8] = genetic background: das1 deletion, temperature: 37 C
[9] = genetic background: doa10 deletion, temperature: 30 C
[10] = genetic background: wild type, temperature: 30 C
[11] = genetic background: wild type, temperature: 37 C

Row | Sequence | protein stability index (Saccharomyces cerevisiae [1]; [4]) | protein stability index (Saccharomyces cerevisiae [1]; genetic background: wild type) | protein stability index (Saccharomyces cerevisiae [2]; [5]) | protein stability index (Saccharomyces cerevisiae [2]; [6]) | protein stability index (Saccharomyces cerevisiae [2]; [7]) | protein stability index (Saccharomyces cerevisiae [2]; [8]) | protein stability index (Saccharomyces cerevisiae [2]; [9]) | protein stability index (Saccharomyces cerevisiae [2]; [10]) | protein stability index (Saccharomyces cerevisiae [2]; [11]) | protein stability index (Saccharomyces cerevisiae [3])
1 | AAAIAGAAALLL [DAN1 C-terminal 12 aa] | 0.712 ± 0.013 | 0.732 ± 0.035 |  |  |  |  |  |  |  | 
2 | AAPQDINQQPNQ [LDS1 C-terminal 12 aa] | 0.727 ± 0.028 | 0.671 ± 0.0087 |  |  |  |  |  |  |  | 
3 | AAQLSSILPKYM [YLR140W C-terminal 12 aa] | 0.674 ± 0.056 | 0.566 ± 0.063 |  |  |  |  |  |  |  | 
4 | AAVAKQKVSDSK [DHR2 C-terminal 12 aa] | 0.664 ± 0.024 | 0.654 ± 0.024 |  |  |  |  |  |  |  | 
5 | AAVRQRREVNKK [ARO4 C-terminal 12 aa] | 0.6893 ± 0.006 | 0.676 ± 0.04 |  |  |  |  |  |  |  | 
6 | ADFLAKKGASRR [RNH1 C-terminal 12 aa] | 0.6944 ± 0.002 | 0.698 ± 0.03 |  |  |  |  |  |  |  | 
7 | ADVRYPNIDDYL [HCS1 C-terminal 12 aa] | 0.73454 ± 6.5e-05 | 0.713 ± 0.048 |  |  |  |  |  |  |  | 
8 | AEELWADIVGSA [TRP2 C-terminal 12 aa] | 0.75126 ± 0.00045 | 0.684 ± 0.019 |  |  |  |  |  |  |  | 
9 | AFEELYMGNCND [SIR1 C-terminal 12 aa] | 0.7218 ± 0.0021 | 0.674 ± 0.035 |  |  |  |  |  |  |  | 
10 | AFFAVILLYIPG [YKR073C C-terminal 12 aa] | 0.287 ± 0.027 | 0.302 ± 0.018 |  |  |  |  |  |  |  | 
11 | AFMMICEKLITL [SEC59 C-terminal 12 aa] | 0.7062 ± 0.0011 | 0.5394 ± 0.0032 |  |  |  |  |  |  |  | 
12 | AGALAAVAAMLL [TIR4 C-terminal 12 aa] | 0.707 ± 0.037 | 0.679 ± 0.024 |  |  |  |  |  |  |  | 
13 | AGALAVAAAYLL [CWP1 C-terminal 12 aa] | 0.693 ± 0.013 | 0.669 ± 0.0081 |  |  |  |  |  |  |  | 
14 | AGSSKFLKGAKI [MRS1 C-terminal 12 aa] | 0.707 ± 0.037 | 0.673 ± 0.0098 |  |  |  |  |  |  |  | 
15 | AGTLDGRLAIWY [BPH1 C-terminal 12 aa] | 0.6943 ± 0.0032 | 0.686 ± 0.014 |  |  |  |  |  |  |  | 
16 | AIAKSIPKRVGL [PUT1 C-terminal 12 aa] | 0.718 ± 0.035 | 0.6998 ± 0.0057 |  |  |  |  |  |  |  | 
17 | AINEGHEGFGLA [TOM1 C-terminal 12 aa] | 0.663 ± 0.025 | 0.687 ± 0.024 |  |  |  |  |  |  |  | 
18 | AKNGDYVKIEQP [YMR315W C-terminal 12 aa] | 0.6792 ± 0.0039 | 0.729 ± 0.019 |  |  |  |  |  |  |  | 
19 | ALAASRAEQPPA [YCR049C C-terminal 12 aa] | 0.691 ± 0.0084 | 0.712 ± 0.012 |  |  |  |  |  |  |  | 
20 | ALEEALMDRLQF [ATG29 C-terminal 12 aa] | 0.7094 ± 0.0057 | 0.6947 ± 0.0064 |  |  |  |  |  |  |  | 
21 | ALGLAGVAMLFL [SED1 C-terminal 12 aa] | 0.694 ± 0.02 | 0.647 ± 0.0089 |  |  |  |  |  |  |  | 
22 | ALGMYFLGPALK [YGL063C-A C-terminal 12 aa] | 0.697 ± 0.02 | 0.7443 ± 0.0028 |  |  |  |  |  |  |  | 

Row | Sequence | protein stability index (Saccharomyces cerevisiae [1]; [4]) | protein stability index (Saccharomyces cerevisiae [1]; genetic background: wild type) | protein stability index (Saccharomyces cerevisiae [2]; [5]) | protein stability index (Saccharomyces cerevisiae [2]; [6]) | protein stability index (Saccharomyces cerevisiae [2]; [7]) | protein stability index (Saccharomyces cerevisiae [2]; [8]) | protein stability index (Saccharomyces cerevisiae [2]; [9]) | protein stability index (Saccharomyces cerevisiae [2]; [10]) | protein stability index (Saccharomyces cerevisiae [2]; [11]) | protein stability index (Saccharomyces cerevisiae [3])
23 | ALSKDGIYTIAN [PAU1 C-terminal 12 aa] | 0.711 ± 0.0085 | 0.721 ± 0.017 |  |  |  |  |  |  |  | 
24 | AMYDKITESQKK [CHD1 C-terminal 12 aa] | 0.714 ± 0.027 | 0.683 ± 0.0096 |  |  |  |  |  |  |  | 
25 | ANSLDAIFLKSK [YNL150W C-terminal 12 aa] | 0.6777 ± 0.0042 | 0.669 ± 0.021 |  |  |  |  |  |  |  | 
26 | VRVLPFCWCIVR |  |  | 0.177 ± 0.03 | 0.14 ± 0.0084 | 0.188 ± 0.028 | 0.288 ± 0.005 | 0.263 ± 0.019 | 0.187 ± 0.017 | 0.259 ± 0.046 | 0.274 ± 0.0053
27 | VSIVLHSVPCGG |  |  | 0.514 ± 0.029 | 0.5211 ± 0.0032 | 0.389 ± 0.019 | 0.54459 ± 0.0005 | 0.361 ± 0.011 | 0.392 ± 0.024 | 0.519 ± 0.011 | 0.453 ± 0.035
28 | VSRVHIRIEGNH |  |  | 0.694 ± 0.027 | 0.755 ± 0.028 | 0.622 ± 0.017 | 0.7218 ± 0.0064 | 0.635 ± 0.026 | 0.634 ± 0.035 | 0.70121 ± 0.00047 | 0.528 ± 0.082
29 | VSVQVRCCPWVG |  |  | 0.679 ± 0.037 | 0.735 ± 0.013 | 0.622 ± 0.011 | 0.728 ± 0.014 | 0.618 ± 0.031 | 0.629 ± 0.016 | 0.709 ± 0.011 | 0.7153 ± 0.0063
30 | VVATLRCLRCSV |  |  | 0.474 ± 0.014 | 0.501 ± 0.052 | 0.346 ± 0.035 | 0.5244 ± 0.0026 | 0.236 ± 0.014 | 0.273 ± 0.043 | 0.441 ± 0.013 | 0.405 ± 0.021
31 | VVCFVVCGFYLG |  |  | 0.235 ± 0.018 | 0.316 ± 0.021 | 0.261 ± 0.025 | 0.452 ± 0.011 | 0.224 ± 0.011 | 0.242 ± 0.051 | 0.428 ± 0.024 | 0.205 ± 0.055
32 | VVCLLGIFYGFC |  |  | 0.382 ± 0.023 | 0.497 ± 0.045 | 0.313 ± 0.031 | 0.5138 ± 0.00014 | 0.293 ± 0.021 | 0.307 ± 0.031 | 0.51 ± 0.014 | 0.446 ± 0.07
33 | VVLCQVCVLWGW |  |  | 0.0623 ± 0.011 | 0.202 ± 0.029 | 0.167 ± 0.031 | 0.252 ± 0.01 | 0.148 ± 0.0088 | 0.151 ± 0.029 | 0.229 ± 0.025 | 0.257 ± 0.016
34 | VVLVLLCIGRLL |  |  | 0.367 ± 0.012 | 0.511 ± 0.026 | 0.305 ± 0.033 | 0.5545 ± 0.0033 | 0.27 ± 0.0062 | 0.3 ± 0.026 | 0.475 ± 0.011 | 0.376 ± 0.0063
35 | VVWIQRTVLSLI |  |  | 0.565 ± 0.038 | 0.603 ± 0.015 | 0.505 ± 0.03 | 0.6 ± 0.011 | 0.151 ± 0.0065 | 0.184 ± 0.027 | 0.327 ± 0.0052 | 0.27 ± 0.049
36 | VWFFGVVLGGLW |  |  | 0.527 ± 0.071 | 0.554 ± 0.0091 | 0.423 ± 0.031 | 0.584 ± 0.014 | 0.4157 ± 0.00077 | 0.421 ± 0.018 | 0.561 ± 0.03 | 0.4443 ± 0.0021
37 | VWRLCFPFALVR |  |  | 0.0577 ± 0.022 | 0.0537 ± 0.012 | 0.155 ± 0.025 | 0.18 ± 0.023 | 0.225 ± 0.0026 | 0.132 ± 0.025 | 0.1406 ± 0.00093 | 0.194 ± 0.02
38 | VWVISLCIGGVG |  |  | 0.298 ± 0.0059 | 0.366 ± 0.0041 | 0.241 ± 0.026 | 0.399 ± 0.011 | 0.205 ± 0.011 | 0.225 ± 0.021 | 0.3811 ± 0.002 | 0.314 ± 0.025
39 | VYFRMGFMRVCV |  |  | 0.487 ± 0.05 | 0.5 ± 0.037 | 0.416 ± 0.032 | 0.554 ± 0.0079 | 0.32 ± 0.013 | 0.344 ± 0.027 | 0.493 ± 0.015 | 0.4611 ± 0.0042
40 | VYFRYWLLVVVF |  |  | 0.0945 ± 0.029 | 0.106 ± 0.022 | 0.148 ± 0.034 | 0.215 ± 0.0027 | 0.117 ± 0.029 | 0.101 ± 0.026 | 0.15 ± 0.0062 | 0.129 ± 0.019
41 | VYRILFWFLCFG |  |  | 0.489 ± 0.023 | 0.406 ± 0.072 | 0.422 ± 0.026 | 0.564 ± 0.043 | 0.4545 ± 0.0021 | 0.412 ± 0.01 | 0.529 ± 0.045 | 0.4679 ± 0.0011
42 | WDPEVVHRLWLN |  |  | 0.587 ± 0.037 | 0.772 ± 0.029 | 0.662 ± 0.034 | 0.766 ± 0.013 | 0.125 ± 0.0063 | 0.14 ± 0.0092 | 0.155 ± 0.019 | 0.237 ± 0.019
43 | WFCCAQRGVIVG |  |  | 0.446 ± 0.018 | 0.452 ± 0.028 | 0.336 ± 0.024 | 0.502 ± 0.0087 | 0.311 ± 0.011 | 0.336 ± 0.026 | 0.478 ± 0.0083 | 0.405 ± 0.012
44 | WFFRLFFLFFSG |  |  | 0.34 ± 0.008 | 0.335 ± 0.019 | 0.4 ± 0.028 | 0.502 ± 0.019 | 0.563 ± 0.022 | 0.371 ± 0.019 | 0.412 ± 0.02 | 0.383 ± 0.0048
